# Reference: IntAct's records for PubMed 18292755
# B1: Autoimmune regulator (Homo sapiens), O43918 (parent)
# chain: MATDAALRRLLRLHRTEIAVAVDSAFPLLHALADHDVVPEDKFQETLHLKEKEGCPQAFHALLSWLLTQDSTAILDFWRVLFKDYNLERYGRLQPILDSFPKDVDLSQPRKGRKPPAVPKALVPPPRLPTKRKASEEARAAAPAALTPRGTASPGSQLKAKPPKKPESSAEQQRLPLGNGIQTMSASVQRAVAMSSGDVPGARGAVEGILIQQVFESGGSKKCIQVGGEFYTPSKFEDSGSGKNKARSSSGPKPLVRAKGAQGAAPGGGEARLGQQGSVPAPLALPSDPQLHQKNEDECAVCRDGGELICCDGCPRAFHLACLSPPLREIPSGTWRCSSCLQATVQEVQPRAEEPRPQEPPVETPLPPGLRSAGEEVRGPPGEPLAGMDTTLVYKHLPAPPSAAPLPGLDSSALHPLLCVGPEGQQNLAPGARCGVCGDGTDVLRCTHCAAAFHWRCHFPAGTSRPGTGLRCRSCSGDVTPAPVEGVLAPSPARLAPGPAKDDTASHEPALHRDDLESLLSEHTFDGILQWAIQSMARPAAPFPS
# Variants of: B1
# Settings: with h31_human H3C1, P68431
row,effect of a mutation on the interaction,Variant
1,disrupting interaction,D312A

# Variants of: B1
# Settings: with h31_human H3C1, P68431
# Remark: another data set of the same source
row,effect of a mutation on the interaction,Variant
1,disrupting interaction,D297A

# Variants of: B1
# Settings: with h31_human H3C1, P68431
# Remark: another data set of the same source
row,effect of a mutation on the interaction,Variant
1,decreasing interaction,D297A

# Variants of: B1
# Settings: with h31_human H3C1, P68431
# Remark: another data set of the same source
row,effect of a mutation on the interaction,Variant
1,disrupting interaction,C311Y

# Variants of: B1
# Settings: with h31_human H3C1, P68431
# Remark: another data set of the same source
row,effect of a mutation on the interaction,Variant
1,decreasing interaction,V301M
